Measurements reported in US20260116991A1 (HAINAN SIMCERE ZAIMING PHARMACEUTICAL, published 2026).
Residue numbers refer to the chain shown, from its start.

T1: polypeptide GC3pep (human)
T1 construct: also called membrane proximal polypeptide GC3pep
T1 peptide: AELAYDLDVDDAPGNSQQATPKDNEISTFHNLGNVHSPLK

B1: F4.26.1 human-murine chimeric antibody (antibody, human IgG1, kappa, V domains shown)
VH: QVQLKQSGPGLVQPSQSLSITCTVSGFSLTSYGVHWVRQSPGKGLEWLGVIWSSGNTDYNAVLISRLSIKKDDSKSQVFFKMNSPQVDDSAIYYCGRNGGWLLRGFMDFWGQGTSVTVSS
VL: DVVMTQTPLSLPVSLGDQASISCRSSQSLLHSNGNTYLHWYLQRSGQSPNLLIYKVSNRFSGVPDRFSGGGSGTDFTLKISRVEAEDLGIYFCSQSTHVPWTFGGGTKLEIKR
B2: F4.21.16 human-murine chimeric antibody (antibody, human IgG1, kappa, V domains shown)
VH: DVQLQESGPGLVKPSQSLSLTCSVTGYSITSGYYWNWIRQFPGNKLEWMGYISYDVTVNYNPSLKNRISITRDTSKNQFFLKLNSVTTEDTATYYCATITSVASMDHWGQGTSVTVSS
VL: DILMTQTPLSLPVSLGDQASISCRSSQNIVHRNGNTYLEWYLQKPGQSPKLLLYKVSNRFSGVPDRFSGSGSGTDFTLKISRVEAEDLGIYYCFQGSHFPFTFGSGTKLEIKR
B3: F1.57.21 (antibody, human IgG1, kappa, V domains shown)
VH: QVQLQQSGAELARPGASVKLSCKASGYTFTSYGISWVKQITGQGLEWIGEIYPRSESTYYNEKFKGKATLTADKSSSTAYMELRSLTSEDSAVYFCARDYGNIYSFAYWGQGTLVTVSA
VL: DIQMTQSPASLSASVGETVTITCRTSENIYSYLAWYQQKQGKSPQLLVYNAKTLAEGVPSRFSGSGSGTQFSLKINSLQPEDFGSYYCQHHYGTPLTFGAGTKLELKR
notes: human-murine chimeric antibody
B4: F1.42.8 (antibody, human IgG1, kappa, V domains shown)
VH: HVQLQQPGAELVKPGASVKLSCKASGYTFTSYWMHWVRQRPGQGLEWIEMIHPNSGSTNYNEKFKSKATLTVDKSSSTAYMQLSSLTSEDSAVYYCARGNYNSSLYAMDYWGQGTSVTVSS
VL: DIQMTQTTSSLSASLGDRVTISCSASQGISNYLNWYQQKPDGTVKLLIYYASNLHSGVPSRFSGSGSGTAYSLTISNLEPEDIATYYCQQYSILPYTFGGGTKLEIKR
notes: as for B3
B5: F1.73.9 (antibody, human IgG1, kappa, V domains shown)
VH: QVQLKQSGAELVRPGASVKLSCKASGYTFTDYYINWVKQRPGQGLEWIARIYPGSGNTYYNEKFKGKATLTAEKSSSTAYMQFSSLTSEDSAVYFCACSTYYTMDYWGQGTSVTVSS
VL: QIVLTQSPAIMSASLGERVTMTCTASSGVSSSYLHWYQQKPGSSPKLWIYTTSNLASGVPARFSGSGSGTSYSLTISSMEAEDAATYYCHQYHRSPYTFGGGTKLEIKR
notes: as for B3
B6: F1.110.24 (antibody, human IgG1, kappa, V domains shown)
VH: EVKLVESGGGLVQPGGSLKLSCAASGFTFSDFYMYWVRQTPEKRLEWVAFISNGGGSTYYPDTVKGRFTISRDNVKNTLYLQMSRLKSEDTAMYYCARPDTSWFAYWGQGSLVTVSA
VL: DIQMTQTTSSLSASLGDRVTISCRASQDIDNYLNWYQQKPDGTVKVLISYTSRLHSGVPSRFSGSGSGTDYSLTISNLEQEDIATYFCQQGNTLPWTFGGGTKLEIKR
notes: as for B3
B7: F1.83.6 (antibody, human IgG1, kappa, V domains shown)
VH: QVQLQQSGPELVKPGASVKISCKASGYAFSSSWMNWVKQRPGKGLEWIGRIYPGDGDTNYNGRFKGKATLTVDKSSSTAYMQLSSLTSEDSAVYFCARGGVFTMALDHWGQGTTLTVSS
VL: DIQMTQSPSSLSASLGGKVTITCKASQDINKYIAWYQHKPGKGPRLLIHYTSTLQPGIPSRFSGSGSGRDYSFSISNLEPEDIATYYCLQYDNLFTFGGGTKLEIKR
notes: as for B3
B8: F1.41.17 (antibody, human IgG1, kappa, V domains shown)
VH: EVQLVESGGDSVKPGGSLKLSCAASGFTFSSYGMSWVRQTPDKRLEWVATINSGGSYTYYQDSVKGRFTISRDNAKNTLYLQMSSLKSEDTAIYYCVRHHYGSSYDYFDYWGQGTTLTVSS
VL: DIVMTQAAPSVPVMPGESVSISCRSSKSLLHSNGNTHLYWFLQRPGQSPQLLIYRMSNLASGVPDRFSGSGSGTAFTLRISRVEAEDVGVYYCMQHLEYPLTFGAGTKLELKR
notes: as for B3
B9: F1.92.17 (antibody, human IgG1, kappa, V domains shown)
VH: EVQLQQSGPELVKPGASVKMSCKASGYTFTDYNMHWVRQSHGKSLEWIGYINPNNGDTIYNQNFKGKATLTVNKSSSTAYMELRSLTSEDSAVYYCSRTITYYYSMDYWGPGTSVTVSS
VL: QIVLTQSPALMSASPGEKVTMTCSASSSVSYMYWYQQKPRSSPKPWIYLTSNLASGVPARFSGSGSGTSYSLTISSMEAEDAATYYCQQWSSNPLTFGAGTKLELKR
notes: as for B3
B10: F1.78.24 (antibody, human IgG1, kappa, V domains shown)
VH: QVQLQQSGAELVKPGASVKMSCKASGYTFTTYPIEWMKQNHGKSLEWIGNFHPYNDDTNYNVKFKGKATLTVEKSSSTVYLELSRLTSDDSALYYCARRREYYGSFDVWGTGTTVTVSS
VL: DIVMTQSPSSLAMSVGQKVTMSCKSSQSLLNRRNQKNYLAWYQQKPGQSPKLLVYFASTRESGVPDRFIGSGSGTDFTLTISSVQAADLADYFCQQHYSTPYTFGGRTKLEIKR
notes: as for B3
B11: F1.115.8 (antibody, human IgG1, kappa, V domains shown)
VH: EVQLQQSGPELVKPGASVKMSCKASGYTFTEYYMHWVKQSHGKSLEWIGYIYPNNGGNGYNQKFKGKATLTVDKSSSTAYMGLRSLTSEDSAVYYCVRGYYSNWYFDVWGTGTTVTVSS
VL: B2 VL with I2V, N28S, R32S, N35K, L53I, I90V, F99V
notes: as for B3

What follows are binders tested against T2, human GPC3-His protein (human, UniProt P51654 25-559) (assay: ELISA, coated human GPC3, antibody 0.1 nM;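 also: antigen coated on 96-well plates at 1 µg/mL, antibody bound 2 h at 37 °C, detected with HRP-labeled secondary antibody and TMB substrate, acid-stopped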).
T2 construct: Bought protein; also called human GPC3 protein; not shown: His tag

OD450 nm [OD450] | Binder
0.64 | B1
0.46 | B2

Each binder was assayed against T3, GPC3 endogenously expressed on HepG2 cells (UniProt P51654 25-554) (assay: FACS on HepG2 cells;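 also: flow cytometric binding of chimeric antibodies to cells, read as mean fluorescence intensity, EC50 obtained by curve fitting of the MFI data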).
T3 construct: whole, on cells

EC50 [nM] | Max MFI [MFI] | Binder
0.85 | 1600 | B1
2.31 | 1710 | B2

What follows are binders tested against T2, human GPC3-His protein (assay: ELISA, coated human GPC3, antibody 10 nM;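 also: plate coated with antigen at 1 µg/mL, antibodies bound 2 h at 37 °C, detected via HRP-conjugated secondary antibody and TMB substrate, absorbance read after acid stop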).
Description: (§1) The specific method is described as follows: The antigen protein was diluted with PBS to a final concentration of 1 μg/mL, and the diluent was added to a 96-well ELISA plate at 50 μL/well. The plate was sealed with a plastic film and incubated at 4° C. overnight, washed twice with PBS the next day, and a blocking solution [PBS+2% (w/w) BSA] was added for blocking at room temperature for 2 h. […] After incubation at 37° C. for 2 h, the plate was washed 3 times with PBS. A horseradish peroxidase (HRP)-labeled secondary antibody (purchased from Merck, Cat. No. AP113P) was added for incubation at 37° C. for 1 h, and the plate was washed 5 times with PBS. A TMB substrate was added at 50 μL/well for incubation at room temperature for 10 min, then a stop solution (1.0M HCl) was added at 50 μL/well. An ELISA plate reader (Multimode Plate Reader, EnSight, purchased from Perkin Elmer) was used to read OD_{450 nm} values, with results as shown in Table 4 to Table 6, FIG. 1A, FIG. 1B, and FIG. 1C.

OD450 nm [OD450] | Binder
1.43 | B1
1.14 | B2

Each binder was assayed against T2, human GPC3-His protein (assay: ELISA, coated human GPC3, antibody 1 nM;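 also: antigen coated at 1 µg/mL on 96-well plates, antibody bound for 2 h at 37 °C, detected with HRP-labeled secondary antibody and TMB, absorbance read at 450 nm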).
Description: as §1

OD450 nm [OD450] | Binder
1.25 | B1
1.37 | B2

Target: T1, polypeptide GC3pep
Assay: ELISA, GC3pep coated, antibody 100 nM;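 also: detection with an HRP-conjugated secondary antibody and TMB substrate, color reaction stopped with HCl before absorbance reading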

OD450 nm [OD450 nm] | Binder
0.06 | B3
0.06 | B4
0.09 | B5
0.06 | B6
0.07 | B7
0.06 | B8
0.1 | B9
0.06 | B10
0.1 | B11

Target: T1, polypeptide GC3pep
Assay: ELISA, GC3pep coated, antibody 1 nM;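 also: bound antibody detected with an HRP-conjugated secondary antibody and TMB substrate, reaction stopped with HCl, after 2 h binding at 37 °C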

OD450 nm [OD450 nm] | Binder
0.05 | B3
0.05 | B4
0.05 | B5
0.04 | B6
0.05 | B7
0.05 | B8
0.05 | B9
0.05 | B10
0.08 | B11

Target: T1, polypeptide GC3pep
Assay: ELISA, GC3pep coated, antibody 0.01 nM;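 also: bound antibody detected with an HRP-conjugated secondary antibody and TMB substrate, color reaction stopped with HCl before reading absorbance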
Description: (§2) The plate was sealed with a plastic film and incubated at 4° C. overnight, washed twice with PBS the next day, and a blocking solution [PBS+2% (w/w) BSA] was added for blocking at room temperature for 2 h. […] After incubation at 37° C. for 2 h, the plate was washed 3 times with PBS. A horseradish peroxidase (HRP)-labeled secondary antibody (purchased from Merck, Cat. No. AP113P) was added for incubation at 37° C. for 1 h, and the plate was washed 5 times with PBS. A TMB substrate was added at 50 μL/well for incubation at room temperature for 10 min, then a stop solution (1.0M HCl) was added at 50 μL/well.

OD450 nm [OD450 nm] | Binder
0.05 | B3
0.05 | B4
0.05 | B5
0.05 | B6
0.05 | B7
0.05 | B8
0.05 | B9
0.05 | B10
0.04 | B11

Target: T1, polypeptide GC3pep
Assay: ELISA, GC3pep coated, antibody 0.1 nM;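 also: antibody allowed to bind the coated plate 2 h at 37 °C, then detected via HRP-conjugated secondary antibody and TMB development for 10 min, stopped with HCl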
Description: as §2

OD450 nm [OD450 nm] | Binder
0.05 | B3
0.05 | B4
0.05 | B5
0.05 | B6
0.05 | B7
0.05 | B8
0.06 | B9
0.05 | B10
0.05 | B11

What follows are binders tested against T2, human GPC3-His protein (assay: ELISA, coated human GPC3, antibody 0.001 nM).

OD450 nm [OD450] | Binder
0.11 | B1
0.1 | B2

The binders below were run against T2, human GPC3-His protein (assay: ELISA, coated human GPC3, antibody 100 nM;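 also: antibodies bound to antigen-coated 96-well plates (1 µg/mL), 2 h at 37 °C, detected with HRP-labelled secondary antibody and TMB substrate, absorbance read at 450 nm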).
Description: as §1

OD450 nm [OD450] | Binder
1 | B1
0.52 | B2

Target: T1, polypeptide GC3pep
Assay: ELISA, GC3pep coated, antibody 0.0001 nM

OD450 nm [OD450 nm] | Binder
0.05 | B3
0.05 | B4
0.04 | B5
0.04 | B6
0.04 | B7
0.05 | B8
0.05 | B9
0.05 | B10
0.05 | B11

The binders below were run against T4, human GPC3 on CHO-K1-human GPC3 cells (clone CHOK1-hGPC3.2B5) (human, UniProt P51654 25-554) (assay: FACS on CHOK1-hGPC3.2B5 cells;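 also: flow cytometry binding of chimeric antibodies to the cells, read out as mean fluorescence intensity, with the half-maximal concentration derived by curve fitting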).
T4 construct: whole, on cells; Stably transfected CHO-K1 clone 2B5
Description: The desired cells were expanded to a logarithmic growth phase in a T-75 cell culture flask, the medium was removed by pipetting, and the cells were washed twice with a PBS buffer, and digested with trypsin. Then a complete medium was added to stop the digestion, and the cells were blown into a single cell suspension. After counting, the cells were centrifuged, and the cell pellet was resuspended with an FACS buffer (PBS+2% fetal bovine serum) to 2×10⁶ cells/mL. The cell resuspension solution was added to a 96-well FACS reaction plate at 50 μl/well, and a chimeric antibody sample to be tested was added at 50 μl/well for incubation at 4° C. for 1 h. […] After the plate was centrifuged and washed 3 times with a PBS buffer, 100 μl of the resulting solution was assayed and analyzed by FACS (FACS Canto™, purchased from BD Biosciences). Data analysis was performed by software (FlowJo) to obtain the mean fluorescence intensity (MFI) of the cells. Then, analysis was performed by software (GraphPad Prism8), data were fitted, and EC₅₀ values were calculated.

EC50 [nM] | Max MFI [MFI] | Binder
1.21 | 2810 | B1
3.25 | 2170 | B2

These binders were tested against T2, human GPC3-His protein (assay: ELISA, coated human GPC3, antibody 0.01 nM;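 also: Plate-bound antigen coated at 1 µg/mL, antibody incubated 2 h at 37 °C, binding detected by HRP-conjugated secondary antibody with TMB substrate, read as absorbance at 450 nm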).
Description: as §1

OD450 nm [OD450] | Binder
0.18 | B1
0.15 | B2

Target: T1, polypeptide GC3pep
Assay: ELISA, GC3pep coated, antibody 0.001 nM

OD450 nm [OD450 nm] | Binder
0.05 | B3
0.05 | B4
0.05 | B5
0.05 | B6
0.05 | B7
0.05 | B8
0.05 | B9
0.05 | B10
0.05 | B11

These binders were tested against T2, human GPC3-His protein (assay: ELISA, coated human GPC3, antibody 0.0001 nM).

OD450 nm [OD450] | Binder
0.09 | B1
0.1 | B2

Target: T1, polypeptide GC3pep
Assay: ELISA, GC3pep coated, antibody 10 nM;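 also: antibody bound to the coated peptide for 2 h at 37 °C, detected through an HRP-conjugated secondary antibody with TMB colour development stopped by acid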

OD450 nm [OD450 nm] | Binder
0.05 | B3
0.05 | B4
0.05 | B5
0.07 | B6
0.06 | B7
0.05 | B8
0.06 | B9
0.05 | B10
0.05 | B11
